T1: Human ang2 protein (Sino Biological, Cat No.: 10691-H08H) (human, UniProt O15123 19-496)
T1 construct: Bought protein; also called recombinant hAng2; human hAng2
T1 sequence: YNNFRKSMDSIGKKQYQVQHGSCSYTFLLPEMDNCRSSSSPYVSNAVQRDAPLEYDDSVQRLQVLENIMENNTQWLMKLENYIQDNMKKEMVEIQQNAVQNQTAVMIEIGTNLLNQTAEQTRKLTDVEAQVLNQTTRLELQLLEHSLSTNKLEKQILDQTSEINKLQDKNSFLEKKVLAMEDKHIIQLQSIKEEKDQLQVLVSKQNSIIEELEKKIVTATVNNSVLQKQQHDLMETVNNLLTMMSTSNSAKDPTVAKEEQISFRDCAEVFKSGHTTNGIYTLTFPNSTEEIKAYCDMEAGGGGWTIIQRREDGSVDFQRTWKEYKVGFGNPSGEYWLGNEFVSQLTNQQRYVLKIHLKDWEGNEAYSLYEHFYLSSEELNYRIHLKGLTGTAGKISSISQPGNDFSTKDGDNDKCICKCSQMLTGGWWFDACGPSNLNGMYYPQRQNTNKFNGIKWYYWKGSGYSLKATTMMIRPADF

T2: Human Ang1 (human, UniProt Q15389 20-498, limits assumed)
T2 construct: also called hAng1
T2 sequence (looked up): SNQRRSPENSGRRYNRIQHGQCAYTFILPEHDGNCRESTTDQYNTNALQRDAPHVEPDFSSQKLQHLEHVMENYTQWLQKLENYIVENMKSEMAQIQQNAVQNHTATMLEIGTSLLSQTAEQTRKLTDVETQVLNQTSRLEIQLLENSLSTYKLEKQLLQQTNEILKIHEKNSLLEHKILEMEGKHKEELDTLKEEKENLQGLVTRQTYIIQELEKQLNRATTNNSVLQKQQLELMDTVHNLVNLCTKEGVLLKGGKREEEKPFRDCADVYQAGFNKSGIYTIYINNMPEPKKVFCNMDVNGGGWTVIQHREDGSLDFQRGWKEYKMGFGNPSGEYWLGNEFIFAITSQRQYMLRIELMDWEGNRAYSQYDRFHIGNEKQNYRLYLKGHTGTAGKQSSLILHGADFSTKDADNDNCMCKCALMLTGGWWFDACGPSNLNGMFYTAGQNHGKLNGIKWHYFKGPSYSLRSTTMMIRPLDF

T3: recombinant biotinylated hAngiopoietin-2 protein (R&D, Cat. No.: BT623B/CF) (human, UniProt O15123 19-496, limits assumed, biotinylated (sites not given))
T3 construct: Bought protein; also called Biotin Ang2; human biotin Ang2 protein
T3 sequence: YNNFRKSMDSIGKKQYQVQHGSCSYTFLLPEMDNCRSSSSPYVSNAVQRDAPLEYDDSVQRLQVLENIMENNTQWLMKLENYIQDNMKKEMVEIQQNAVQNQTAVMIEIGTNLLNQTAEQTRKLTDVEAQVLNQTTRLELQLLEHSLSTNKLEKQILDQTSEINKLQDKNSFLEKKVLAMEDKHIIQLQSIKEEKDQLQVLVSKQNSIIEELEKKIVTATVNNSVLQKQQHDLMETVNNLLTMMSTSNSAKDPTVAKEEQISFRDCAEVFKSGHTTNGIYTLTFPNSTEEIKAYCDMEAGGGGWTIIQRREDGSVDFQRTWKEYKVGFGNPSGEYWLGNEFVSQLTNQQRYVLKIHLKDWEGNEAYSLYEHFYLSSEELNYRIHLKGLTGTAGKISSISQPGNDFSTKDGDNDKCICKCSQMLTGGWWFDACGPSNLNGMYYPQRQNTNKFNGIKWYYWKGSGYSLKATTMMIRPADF

T4: human Ang2 (human, UniProt O15123 19-496, limits assumed)
T4 construct: also called hAng2; h Ang2
T4 sequence: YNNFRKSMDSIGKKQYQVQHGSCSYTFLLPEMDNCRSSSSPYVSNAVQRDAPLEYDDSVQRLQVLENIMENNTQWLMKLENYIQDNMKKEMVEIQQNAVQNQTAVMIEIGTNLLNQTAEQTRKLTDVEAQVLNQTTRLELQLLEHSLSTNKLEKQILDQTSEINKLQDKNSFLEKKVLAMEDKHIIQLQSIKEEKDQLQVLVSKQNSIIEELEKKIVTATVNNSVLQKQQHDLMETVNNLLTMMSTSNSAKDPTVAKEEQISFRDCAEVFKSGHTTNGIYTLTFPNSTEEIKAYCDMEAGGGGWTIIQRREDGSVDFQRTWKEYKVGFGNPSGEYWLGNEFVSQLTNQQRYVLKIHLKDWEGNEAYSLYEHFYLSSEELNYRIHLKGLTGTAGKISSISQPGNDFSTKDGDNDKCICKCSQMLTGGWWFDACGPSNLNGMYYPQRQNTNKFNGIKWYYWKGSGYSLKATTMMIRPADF


What was measured:
[1] = biological target: T1, Human ang2 protein (Sino Biological, …); test: ELISA: human ang2 protein (Sino Biological 10691-H08H) coated at 0.25 ug/ml, antibody titrated, HRP-conjugated secondary antibody, OD450-OD620, GraphPad fit
Method: The binding of the respective parental murine hybridoma antibodies of the above exemplary chimeric antibodies 81H10, 86E9, and 107H7 to human hAng2 was measured in an ELISA-based assay.
Human ang2 protein (Sino Biological, Cat No.: 10691-H08H) was diluted to 0.25 μg/ml with PBS, and was coated onto a microtiter plate at 100 μl/well at 4° C. overnight. After three washes with PBST, the plate was blocked with 5% BSA. Gradient diluted antibodies (maximum concentration 20 nM, 1:2 serial dilution) were added to the microtiter plate and incubated for 2 h. After three washes with PBST, a 1:10000 dilution of anti-mouse IgG, HRP-conjugated antibody (Cell Signaling, Cat. No. 7076P2) was added, and after incubation for 60 min, the plate was washed six times with PBST. Chromogenic reaction was performed with 100 ul TMB and terminated with 100 ul 2N sulfuric acid. The reading of OD₄₅₀-OD₆₂₀ was taken by microplate reader. The concentration-dependent curve was fitted with GraphPad based on the OD₄₅₀-OD₆₂₀.

Human Ang1 = biological target: T2, Human Ang1; test: ForteBio BLI, antibody on AHQ sensor
Method: (§1) The equilibrium dissociation constants (KD) of the above exemplary antibodies of the present invention binding to human Ang2 (h Ang2), cynomolgus monkey Ang2 (cAng2), murine Ang2 (mAng2), and human Ang1 (hAng1) were determined using the biological optical interferometry (ForteBio) assay.
(§2) The ForteBio affinity assay was performed according to the existing method (Estep, P et al., High throughput solution-based measurement of antibody-antigen affinity and epitope binning. MAbs, 2013.5 (2): p. 270-8). Briefly, the sensor was equilibrated in the assay buffer off-line for 30 min, followed by on-line detection for 60 s to establish the baseline. Then the purified antibodies obtained as described above were loaded on-line onto an AHQ sensor (ForteBio) for ForteBio affinity assay. The sensors with loaded antibodies were exposed to 100 nM of hAng2, cAng2, mAng2, and hAng1 antigens for 5 min, and then were transferred into the assay buffer for dissociation for 5 min to determine the dissociation rate. Kinetic analysis was performed using a 1:1 binding model.

[2] = biological target: T3, recombinant biotinylated …; test: blocking ELISA: antibody titrated against biotinylated hAng2 (300 ng/ml final); blocked binding to coated hTie2 protein; Avidin-HRP detection
Method: The abilities of 81H10, 86E9, 107H7, hz81H10.4, Amhz81H10.4.30, Amhz81H10.4.49, and the control antibodies Nesvacumab and faricimab to block the binding of human Ang2 to hTie2 were determined by ELISA. Faricimab is a bispecific antibody drug undergoing a clinical trial and developed by Roche, which targets both angiopoietin-2 (Ang-2) and VEGF-A.
Then the plate was blocked using 5% BSA for 1 h. The biotinylated antigen, recombinant biotinylated hAngiopoietin-2 protein (R&D, Cat. No.: BT623B/CF), was diluted to 600 ng/ml, and was added into the microtiter plate at 50 μl/well. The antibodies (81H10, 86E9, 107H7, hz81H10.4, Amhz81H10.4.30 and Amhz81H10.4.49) prepared as described above were gradiently diluted with a total of 8 or 12 dilution points starting from the highest concentration, and then added to the microtiter plate at 50 μl/well, and incubated in PBS on ice for 30 min. Then, 50 ul of antigen solution was added to the microtiter plate, in which the final antigen concentration was 300 ng/ml. The plate containing the antigen-antibody mixture was incubated for 90 min. After three washes with PBS, the supernatant was discarded, and Avidin-HRP (Invitrogen) diluted at 1:10000 was added at 100 μl/well, then incubated at room temperature for 30 min. PBS was used to wash the plate six times. Then TMB chromogen solution (solarbio) was added at 100 ul/well to allow for chromogenic reaction for 1 min, then the reaction was terminated with the addition of stop solution (solarbio) at 100 ul/well.

human Ang2 = biological target: T4, human Ang2; test: ForteBio BLI, antibody on AHQ sensor, 100 nM antigen, 1:1 model
Method: as §1, §2

Row | Binder | EC50 [1] [pM] | binding result (Human Ang1) | IC50 [2] [pM] | Kd (human Ang2) [pM]
1 | parental murine hybridoma antibody of chimeric antibody 86E9 (antibody, V domains shown, Murine antibody from the hybridoma; also called 86E9 (murine hybridoma antibody)) VH: EVMLVESGGGLVQPGGSMKLSCVASGFTFSNYWMNWVRQSPEKGLEWVAEIRLKSNNYATHYAESVKGRFTISRDVSKSGVYLQMNNLRTEDTGIYYCTDTAPFAYWGQGTLVTVSA VL: DIVMTQSHKFLSTSVGARVSITCKASQDVGTDVAWYQQKPGQSPKLLIYWASTRHTGVPDRFTGSGSGTDFTLTISNVQSEDLSDYFCQQYSSYPLTFGGGTKLEIK | 434 | – | – | –
2 | affinity matured antibody Amhz81H10.4.30 (antibody, human IgG1, kappa, V domains shown) VH: EVQLVESGGGLVKPGGSLRLSCAASGFTFRAAWMNWVRQAPGKGLEWVAEIRLKSNHYETHYAESVKGRFTISRDVSKNTVYLQMNSLKTEDTAVYYCTDTQPGAYWGQGTLVTVSS VL: DIQMTQSPSSLSASVGDRVTITCKASQYVFTDVAWYQQKPGKAPKLLIYWASTRWTGVPSRFSGSGSGTDFTLTISSLQPEDFATYYCQQTSSYPLTFGGGTKVEIKR | – | no binding (tested: 100 nM) | 4910 | 23200

Continued by falling EC50 [1], values first:

Row | EC50 [1] [pM] | binding result (Human Ang1) | IC50 [2] [pM] | Kd (human Ang2) [pM] | Binder
3 | 248 | – | – | – | parental murine hybridoma antibody of chimeric antibody 81H10 (antibody, V domains shown, Murine antibody from the hybridoma; also called 81H10 (murine hybridoma antibody)) VH: EVKLEESGGGLVQPGGSMKLSCVASGFTFSNYWMNWVRQSPEKGLEWVAEIRLKSNNYATHYAESVKGRFTISRDVSKSSVYLQMNNLRTEDTGIYYCTDTAPFAYWGQGTLVTVSA VL: DIVMTQSHKFMSTSVGDRVSITCKASQDVGTDVAWYQQKPGQSPKLLIYWASTRHTGVPDRFTGSGSGTDFTLTISNVQSEDLSDYFCQQYSSYPLTFGGGTKLEIK
4 | 231 | – | – | – | parental murine hybridoma antibody of chimeric antibody 107H7 (antibody, V domains shown, Murine antibody from the hybridoma; also called 107H7 (murine hybridoma antibody)) VH: EVMLVESGGGLVQPGGSMKLSCVASGFTFSNYWMNWVRQSPEKGLEWVAEIRLKSNNYATHYAESVKGRFTISRDVSKSGVYLQMNNLRTEDTGIYYCTDTAPFAYWGQGTLVTVSA VL: DIVMTQTPKFLSTSVGARVSITCKASQDVGTDVAWYQQKPGQSPKLLIYWASTRHTGVPDRFTGSGSGTDFTLTISNVQSEDLSDYFCQQYSSYPLTFGGGTKLEIK
